We go through twelve substances from patent publication US20240132578A1.

For orientation: IC50 means the concentration needed to halve the response being measured. Lower therefore signals greater potency in that assay. As a reminder, the EC50 is the concentration at which the effect is half-maximal.

Experiment [1] deals with HIV-1 93UG077 envelope glycoprotein (Env) on virus (HIV-1, clade A, isolate 93UG077). The experiment can be described thus: cell-based or functional assay.
The target of experiment [2] is HIV-1 MGRM-D-018 envelope glycoprotein (Env), clade D pseudovirus (HIV-1). The experiment in a line: cell-based or functional assay.
In experiment [3] the target is HIV-1 JR-CSF Env T297A (HIV-1 (isolate JR-CSF, clade B)) (UniProt P20871). The experiment in a line: cell-based or functional assay.
Experiment [4] deals with aMLV envelope protein (negative control pseudovirus). The experiment can be described thus: cell-based or functional assay.
Experiment [5] concerns the target HIV-1 envelope glycoprotein (Env) of isolate 93WR029 (HIV-1). The experiment in a line: cell-based or functional assay.
The target of experiment [6] is HIV-1 Env of isolate MG RM-D-004 (subtype D) (HIV-1). The experiment in a line: cell-based or functional assay.
Experiment [7] has as its target HIV-1 envelope glycoprotein (Env) of isolate 92UG031 (HIV-1). The experiment in a line: cell-based or functional assay.
In experiment [8] the target is HIV-1 Env of isolate MGRM-C-025 (clade C pseudovirus) (HIV-1). The experiment in a line: cell-based or functional assay.
The target of experiment [9] is HIV-1 Env of isolate MGRM-A-012 (pseudovirus) (HIV-1). The experiment can be described thus: cell-based or functional assay.
The target in experiment [10] is HIV-1 Env of isolate MG RM-D-028 (subtype D) (HIV-1). The experiment in a line: cell-based or functional assay.
The target in experiment [11] is HIV-1 envelope glycoprotein (Env) of isolate MG RM-A-009 (HIV-1). The experiment in a line: cell-based or functional assay.
The target in experiment [12] is HIV-1 Env of isolate MGRM-F1-012 (subtype F) (HIV-1). The experiment in a line: cell-based or functional assay.
Experiment [13] has as its target HIV-1 Env of isolate MG RM-D-005 (subtype D) (HIV-1). The experiment can be described thus: cell-based or functional assay.
Experiment [14] concerns the target HIV-1 envelope glycoprotein (Env) of isolate MG RM-A-005 (HIV-1). The experiment can be described thus: cell-based or functional assay.
Experiment [15] concerns the target HIV-1 envelope glycoprotein (Env) of isolate 92RW008 (HIV-1). The experiment can be described thus: cell-based or functional assay.
Experiment [16] addresses HIV-1 Env of isolate NL43 (clade B) (HIV-1). The experiment can be described thus: cell-based or functional assay.
Experiment [17] has as its target HIV-1 Env of isolate MG RM-D-012 (subtype D) (HIV-1). The experiment in a line: cell-based or functional assay.
Experiment [18] deals with HIV-1 Env of isolate MG RM-D-003 (subtype D) (HIV-1). The experiment can be described thus: cell-based or functional assay.
Experiment [19] concerns the target HIV-1 Env of isolate APV_6 (subtype B), on pseudovirus (HIV-1). The experiment in a line: cell-based or functional assay.
Experiment [20] concerns the target HIV-1 Env of isolate MGRM-Chronic-B-002 (subtype B), on pseudovirus (HIV-1). The experiment in a line: cell-based or functional assay.
The target in experiment [21] is HIV-1 Env of isolate MGRM-C-026 (clade C) (HIV-1). The experiment in a line: cell-based or functional assay.
The target in experiment [22] is HIV-1 Env of isolate MG RM-D-008 (subtype D) (HIV-1). The experiment can be described thus: cell-based or functional assay.
Experiment [23] deals with HIV-1 Env of isolate APV_17 (subtype B), on pseudovirus (HIV-1). The experiment can be described thus: cell-based or functional assay.
Experiment [24] has as its target HIV-1 Env of isolate MG RM-D-024 (subtype D) (HIV-1). The experiment can be described thus: cell-based or functional assay.
In experiment [25] the target is HIV-1 Env of isolate 92TH021 (clade AE) (HIV-1). The experiment can be described thus: cell-based or functional assay.
The target of experiment [26] is HIV-1 Env of isolate IAVI-C3 (Clade C) (HIV-1). The experiment can be described thus: cell-based or functional assay.
Experiment [27] has as its target HIV-1 92BR020 envelope protein (Env) on pseudotyped virus (HIV-1 strain 92BR020). The experiment in a line: cell-based or functional assay.
Experiment [28] addresses HIV-1 envelope glycoprotein (Env) of isolate APV13 (HIV-1). The experiment in a line: cell-based or functional assay.
The target of experiment [29] is HIV-1 envelope glycoprotein (Env) of isolate 92RW020 (HIV-1). The experiment in a line: cell-based or functional assay.
In experiment [30] the target is HIV-1 envelope glycoprotein (Env) of isolate 92UG037 (HIV-1). The experiment can be described thus: cell-based or functional assay.
Experiment [31] deals with HIV-1 Env of isolate MGRM-Chronic-B-020 (subtype B), on pseudovirus (HIV-1). The experiment in a line: cell-based or functional assay.
The target of experiment [32] is HIV-1 Env of isolate MGRM-F1-008 (subtype F) (HIV-1). The experiment in a line: cell-based or functional assay.
The target of experiment [33] is aMLV envelope (negative control pseudovirus). The experiment in a line: cell-based or functional assay.
For experiment [34], the target named is HIV-1 JR-CSF Env N386A (HIV-1 isolate JR-CSF) (UniProt P20871). The experiment in a line: cell-based or functional assay.
For experiment [35], the target named is HIV-1 92BR020 Env (pseudovirus) (HIV-1). The experiment can be described thus: cell-based or functional assay.
Experiment [36] addresses HIV-1 JR-CSF Env S387A (HIV-1 isolate JR-CSF) (UniProt P20871). The experiment in a line: cell-based or functional assay.
Experiment [37] deals with Endo H treated JR-FL gP120 (HIV-1 JR-FL). The experiment in a line: ELISA, antigen-coated wells, mAb titrated; EC50 by nonlinear regression. Background: In an ELISA, binding on a coated surface is turned into a signal by an enzyme label.
The target in experiment [38] is HIV-1 92BR020 Env (HIV-1 isolate 92BR020 (clade B)). The experiment in a line: cell-based or functional assay.
For experiment [39], the target named is HIV-1 MGRM-C-026 Env (HIV-1 isolate MGRM-C-026 (clade C)). The experiment in a line: cell-based or functional assay.

In experiment [1], 4877_D15 (PGT-122) (antibody) yielded a Neutralization IC80 of 0.931 µg/mL, a Neutralization IC90 of 2.1 µg/mL, a Neutralization IC95 of 3.88 µg/mL and a neutralization IC50 of 0.191 µg/mL.

In experiment [2], 4858_P08 (PGT-123) (antibody) had an IC50, pseudovirus neutralization of 0.0047 µg/mL; an IC80 (pseudovirus neutralization) of 0.0175 µg/mL; an IC90 (pseudovirus neutralization) of 0.0381 µg/mL; an IC95 (pseudovirus neutralization) of 0.0791 µg/mL. The Fold IC50 increase relative to wild-type in experiment [3] was found to be 0.3 fold. In experiment [4], this substance registered an IC50, pseudovirus neutralization above 10 µg/mL; an IC80 (pseudovirus neutralization) above 10 µg/mL; an IC90 (pseudovirus neutralization) above 10 µg/mL; an IC95 (pseudovirus neutralization) above 10 µg/mL.

Take 1496_C09 (PG9) (TCN-109) (antibody): the IC50 in experiment [5] is 0.69 µg/mL; in experiment [7] it was 3.6 µg/mL; in experiment [11] it was 0.023 µg/mL; in [14], 0.75 µg/mL; in experiment [15], 0.006 µg/mL. In addition, the IC50 (µg/mL), pseudovirus neutralization in experiment [6] came to 0.06 µg/mL; in [9], 19.3 µg/mL; in experiment [10], 20.2 µg/mL; in [12], 0.023 µg/mL; in experiment [13], 1.8 µg/mL; in experiment [17], 16.2 µg/mL. Besides, the IC50 (µg/mL), pseudovirus neutralization in experiment [18] was 0.033 µg/mL; in [22] it was 11.5 µg/mL; in experiment [24] it was 0.038 µg/mL. In experiment [8], this substance had an IC50 (µg/mL), single-round pseudovirus neutralization of 0.148 µg/mL. The neutralization IC50 in experiment [16] came to 0.687 µg/mL; in [21] it was 0.113 µg/mL; in [25] it was 0.103 µg/mL. In addition, the IC50, single-round pseudovirus neutralization in [19] was 0.181 µg/mL; in experiment [20], 3.44 µg/mL; in [23], 34.8 µg/mL. The substance also gave a Neutralization IC80 in experiment [25] of 0.448 µg/mL. Further, the Neutralization IC90 in experiment [25] came out at 1.07 µg/mL. The substance further yielded a Neutralization IC95 in experiment [25] of 2.43 µg/mL.

For 1443_C16 (PG16) (TCN-116) (antibody), in experiment [26], the IC90 (neutralization of pseudovirus) is above 50 µg/mL. In [27], the IC50, Neutralizing Antibody Assay, Virus/Ab Incubation 1 hour is above 50 µg/mL and the IC50, Neutralizing Antibody Assay, Virus/Ab Incubation 18 hour is above 50 µg/mL.

Regarding 5141_B17 (PGT-126) (antibody), in experiment [28], the Neutralization IC80 worked out at 0.0411 µg/mL, the Neutralization IC90 came to 0.084 µg/mL, the Neutralization IC95 was 0.162 µg/mL and the neutralization IC50 turned out to be 0.012 µg/mL. In experiment [4], this substance came in with a Neutralization IC80 above 10 µg/mL, a Neutralization IC90 above 10 µg/mL, a Neutralization IC95 above 10 µg/mL and a neutralization IC50 above 10 µg/mL. In experiment [29], this substance gave a Neutralization IC80 of 0.0168 µg/mL, a Neutralization IC90 of 0.0359 µg/mL, a Neutralization IC95 of 0.0728 µg/mL and a neutralization IC50 of 0.0046 µg/mL.

Regarding PGV04 (antibody), the IC50 amounted to 0.54 µg/mL in experiment [5]; 4.46 µg/mL in [7]; 0.145 µg/mL in [30]; 0.033 µg/mL in [11]; 0.134 µg/mL in experiment [14]; 0.014 µg/mL in experiment [15]. Moreover, the IC50 (µg/mL), pseudovirus neutralization is 43.2 µg/mL in experiment [6]; 0.225 µg/mL in experiment [9]; 1.01 µg/mL in experiment [10]; 0.25 µg/mL in experiment [12]; above 50 µg/mL in experiment [13]; 0.125 µg/mL in experiment [17]. Also, the IC50 (µg/mL), pseudovirus neutralization in experiment [18] is above 50 µg/mL; in experiment [32], 1.03 µg/mL; in [22], 3.56 µg/mL; in experiment [24], above 50 µg/mL. Also, in experiment [8], the IC50 (µg/mL), single-round pseudovirus neutralization is above 50 µg/mL. Further, the IC50, single-round pseudovirus neutralization was found to be 24.2 µg/mL in [19], 1.26 µg/mL in [31], 0.142 µg/mL in [20] and 0.309 µg/mL in experiment [23].

Take 5123_A06 (PGT-125) (antibody): in [33], the Neutralization by PGT-125, IC50 was above 10 µg/mL; the Neutralization by PGT-125, IC80 is above 10 µg/mL; the Neutralization by PGT-125, IC90 was above 10 µg/mL; the Neutralization by PGT-125, IC95 is above 10 µg/mL. The same substance gave a Fold IC50 increase relative to wild-type in [34] of 0.8 fold. Also, in experiment [35], the Neutralization by PGT-125, IC50 came out at 0.0214 µg/mL; the Neutralization by PGT-125, IC80 came to 0.0738 µg/mL; the Neutralization by PGT-125, IC90 was 0.156 µg/mL; the Neutralization by PGT-125, IC95 amounted to 0.323 µg/mL.

In experiment [27], 1495_C14 (PGC14) (antibody) came in with an IC50, Neutralizing Antibody Assay, Virus/Ab Incubation 1 hour of 1.17 µg/mL and an IC50, Neutralizing Antibody Assay, Virus/Ab Incubation 18 hour of 0.244 µg/mL.

As for 5147_N06 (PGT-130) (antibody), the Fold IC50 increase relative to wild-type in experiment [34] amounted to 0.1 fold; in experiment [36], 0.7 fold.

In turn, 2G12 (antibody) registered an IC90 (neutralization of pseudovirus) in experiment [26] above 50 µg/mL.

5343_B08 (PGT-135) (antibody): the Fold IC50 increase relative to wild-type was above 30 fold in experiment [3] and 0.6 fold in experiment [36].

In turn, 4838_L06 (PGT-121) (antibody) gave a concentration giving a half-maximal response (EC50) in experiment [37] above 10 µg/mL. In addition, in experiment [38], the Neutralization IC80 was 0.0532 µg/mL and the Neutralization IC90 came to 0.101 µg/mL. In experiment [39], this substance had a Neutralization IC95 of 0.0687 µg/mL.
